Assay results as given in paper PMC3699901 (Journal of molecular biology, 2013).
Ends that are not written are not given here. * marks the point of attachment. 5FAM = O=C1OC2(c3ccc(O)cc3Oc3cc(O)ccc32)c2ccc(C(=O)*)cc21

B2: fluorescein labeled SRC-1 peptide (5-FAM-[residues removed]), residues 676-700 (peptide)
peptide: 5FAM-CPSSHSSLTERHKILHRLLQEGSPS

Assays:
[1] = biological target: T1, RXRα LBD (residues 227-462), the LBD part of the crystallised fusion chain (human, UniProt P19793 227-462); test: crystal structure
T1 sequence (looked up): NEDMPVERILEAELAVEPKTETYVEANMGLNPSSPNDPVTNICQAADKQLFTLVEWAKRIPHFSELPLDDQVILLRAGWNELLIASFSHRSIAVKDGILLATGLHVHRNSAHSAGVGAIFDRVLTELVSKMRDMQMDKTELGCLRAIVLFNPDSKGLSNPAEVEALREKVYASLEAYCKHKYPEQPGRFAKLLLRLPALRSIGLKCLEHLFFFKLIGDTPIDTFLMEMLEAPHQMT

[2] = biological target: T2, PXR LBD (residues 130-434), the LBD part of the crystallised fusion chain (human, UniProt O75469 130-434); test: crystal structure
T2 sequence (looked up): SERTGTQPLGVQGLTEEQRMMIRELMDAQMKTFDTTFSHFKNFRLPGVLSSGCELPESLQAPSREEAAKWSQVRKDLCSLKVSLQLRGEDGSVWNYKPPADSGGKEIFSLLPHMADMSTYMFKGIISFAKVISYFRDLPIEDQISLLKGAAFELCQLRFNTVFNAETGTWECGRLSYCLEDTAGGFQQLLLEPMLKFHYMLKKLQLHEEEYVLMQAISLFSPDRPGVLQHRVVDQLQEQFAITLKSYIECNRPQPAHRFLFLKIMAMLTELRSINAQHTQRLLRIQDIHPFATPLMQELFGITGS

[3] = biological target: B2; test: fluorescence polarisation
[4] = biological target: T3, wild-type RXRα LBD without the fused coactivator peptide (human, UniProt P19793 227-462); test: fluorescence polarisation
T3 sequence (looked up): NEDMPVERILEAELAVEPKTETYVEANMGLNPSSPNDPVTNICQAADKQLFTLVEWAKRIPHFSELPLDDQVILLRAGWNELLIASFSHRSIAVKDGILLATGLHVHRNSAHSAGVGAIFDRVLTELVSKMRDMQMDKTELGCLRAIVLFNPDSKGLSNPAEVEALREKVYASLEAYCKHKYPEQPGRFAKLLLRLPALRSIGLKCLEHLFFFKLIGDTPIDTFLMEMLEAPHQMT

[5] = biological target: T4, wild-type PXR LBD without the fused coactivator peptide (human, UniProt O75469 130-434); test: fluorescence polarisation
T4 sequence (looked up): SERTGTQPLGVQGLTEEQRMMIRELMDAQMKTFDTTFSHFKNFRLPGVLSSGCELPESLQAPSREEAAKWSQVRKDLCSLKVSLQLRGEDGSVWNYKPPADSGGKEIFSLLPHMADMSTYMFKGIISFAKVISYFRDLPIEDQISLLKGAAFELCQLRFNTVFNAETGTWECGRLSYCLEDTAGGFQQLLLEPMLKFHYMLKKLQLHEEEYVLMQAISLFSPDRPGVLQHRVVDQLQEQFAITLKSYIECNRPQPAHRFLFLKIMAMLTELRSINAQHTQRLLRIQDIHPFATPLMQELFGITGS

SSHSSLTERHKILHRLLQEGSPS: binds [1]; binds [2].

B1: PXR/RXRα LBD heterotetramer complex of unfused PXR LBD with SRC-1-fused RXRα LBD (complex, human)
chain 1: SERTGTQPLGVQGLTEEQRMMIRELMDAQMKTFDTTFSHFKNFRLPGVLSSGCELPESLQAPSREEAAKWSQVRKDLCSLKVSLQLRGEDGSVWNYKPPADSGGKEIFSLLPHMADMSTYMFKGIISFAKVISYFRDLPIEDQISLLKGAAFELCQLRFNTVFNAETGTWECGRLSYCLEDTAGGFQQLLLEPMLKFHYMLKKLQLHEEEYVLMQAISLFSPDRPGVLQHRVVDQLQEQFAITLKSYIECNRPQPAHRFLFLKIMAMLTELRSINAQHTQRLLRIQDIHPFATPLMQELFGITGS
chain 2: NEDMPVERILEAELAVEPKTETYVEANMGLNPSSPNDPVTNICQAADKQLFTLVEWAKRIPHFSELPLDDQVILLRAGWNELLIASFSHRSIAVKDGILLATGLHVHRNSAHSAGVGAIFDRVLTELVSKMRDMQMDKTELGCLRAIVLFNPDSKGLSNPAEVEALREKVYASLEAYCKHKYPEQPGRFAKLLLRLPALRSIGLKCLEHLFFFKLIGDTPIDTFLMEMLEAPHQMTGGSGGSSHSSLTERHKILHRLLQEGSPS
Work on B1 yielded a Kd [3] of 588 ± 29.7 nM.

With B2 the Kd [4] was 1560 ± 198 nM and the Kd [5] was 1180 ± 92.2 nM.

B3: PXR/RXRα LBD heterotetramer complex of SRC-1 fused PXR LBD with unfused RXRα LBD (complex, human)
chain 1: NEDMPVERILEAELAVEPKTETYVEANMGLNPSSPNDPVTNICQAADKQLFTLVEWAKRIPHFSELPLDDQVILLRAGWNELLIASFSHRSIAVKDGILLATGLHVHRNSAHSAGVGAIFDRVLTELVSKMRDMQMDKTELGCLRAIVLFNPDSKGLSNPAEVEALREKVYASLEAYCKHKYPEQPGRFAKLLLRLPALRSIGLKCLEHLFFFKLIGDTPIDTFLMEMLEAPHQMT
chain 2: SERTGTQPLGVQGLTEEQRMMIRELMDAQMKTFDTTFSHFKNFRLPGVLSSGCELPESLQAPSREEAAKWSQVRKDLCSLKVSLQLRGEDGSVWNYKPPADSGGKEIFSLLPHMADMSTYMFKGIISFAKVISYFRDLPIEDQISLLKGAAFELCQLRFNTVFNAETGTWECGRLSYCLEDTAGGFQQLLLEPMLKFHYMLKKLQLHEEEYVLMQAISLFSPDRPGVLQHRVVDQLQEQFAITLKSYIECNRPQPAHRFLFLKIMAMLTELRSINAQHTQRLLRIQDIHPFATPLMQELFGITGSGGSGGSSHSSLTERHKILHRLLQEGSPS
With B3 the Kd [3] was 778 ± 88.8 nM.
